This is an account of results in US20050226881A1 (LUDWIG INSTITUTE FOR CANCER RESEARCH, published 2005).

For the experiment, the target named is HLA-Cw*0701 (human). In words: cell-based or functional assay.

For the molecule EGDCAPEEK [peptide (D), EGDCAPEEK (amino acids 2-10 of SEQ ID NO: 2)], the “percent lysis (51Cr release) of autologous EBV-B cells loaded with 1 nM peptide, effector/target ratio 5:1” value was ~34%.
